According to patent publication US20210347865A1 (STATEN BIOTECHNOLOGY B V, published 2021):
Changes are numbered by the printed parent chain. Each block holds one binder with its values, some of them ahead of it.

Experiments:
native human ApoC3 [1] = target: T1, native human ApoC3 (human, UniProt P02656 21-99, biotinylated in the captured-antigen assays (Tables 6 and 8); sites not stated); assay: SPR, biotinylated antigen captured on SA chip, scFv periplasmic extract injected, pH 7.4
T1 construct: also called nhuApoC3; native huApoC3

[2] = target: T2, recombinant cynomolgus ApoC3 (cynomolgus monkey, UniProt P18659 21-99, biotinylated in the captured-antigen assays (Tables 6 and 8); sites not stated); assay: as above
T2 construct: No cleavage site is stated, so none is applied; also called rcyApoC3; bio-rcyApoC3

native human ApoC3 [3] = target: T1, native human ApoC3; assay: SPR, antigen immobilized on CM5 chip, IgG as analyte, pH 7.4
[4] = target: T2, recombinant cynomolgus ApoC3; assay: as above
native human ApoC3 [5] = target: T1, native human ApoC3; assay: SPR, biotinylated antigen captured on streptavidin chip, IgG as analyte, pH 7.4
native human ApoC3 [6] = target: T1, native human ApoC3; assay: SPR, IgG captured via anti-human Fc, ApoC3 analyte 50 nM
Protocol: (§1) Immobilization was performed in accordance with the method provided by Biacore in the NHS/EDC kit (Biacore AB). Briefly, after activation of the chip, a solution of 30 μg/ml anti-human Fcγ antibody in 10 mM acetate buffer with pH 5.0 was injected until the surface density reached approximately 10,000 RU. […] Following antibody capture, 100 μl of HBS-EP buffer was injected and passed through the flow cells at 30 μl/min. To bind target, 60 μl of 400 nM, 200 nM, 100 nM, or 50 nM ApoC3 protein in HBS-EP buffer was injected. An off-rate wash was performed by injection of HBS-EP buffer at 30 μl/min for 5 min. After dissociation, the flow cell surfaces were regenerated by injecting 20 μl of 10 mM glycine at pH 1.5.
(§2) The resulting sensorgrams were analysed with BIAevaluation 4.1 software using the Langmuir 1:1 binding model to derive binding kinetics. Data was zero adjusted and the reference cell sensorgrams were subtracted. A no-analyte blank assay was used for double referencing the sensorgrams corresponding to nhuApoC3 and rcyApoC3 injections. The dissociation and association phase sensorgrams were fitted separately for the 4 different concentration curves. Sensorgrams were excluded from the fitting if maximum RU values were below the limit of detection (i.e., <5 RU). SPR signals were too low to calculate kinetic parameters for […].

native human ApoC3 [7] = target: T1, native human ApoC3; assay: SPR, IgG captured via anti-human Fc, ApoC3 analyte 100 nM
Protocol: as §1, §2

[8] = target: T2, recombinant cynomolgus ApoC3; assay: as above
Protocol: as §1, §2

native human ApoC3 [9] = target: T1, native human ApoC3; assay: SPR, IgG captured via anti-human Fc, ApoC3 analyte 200 nM
Protocol: as §1, §2

[10] = target: T2, recombinant cynomolgus ApoC3; assay: as above
Protocol: as §1, §2

native human ApoC3 [11] = target: T1, native human ApoC3; assay: SPR, IgG captured via anti-human Fc, ApoC3 analyte 400 nM
Protocol: as §1, §2

[12] = target: T2, recombinant cynomolgus ApoC3; assay: as above
Protocol: as §1, §2

[13] = target: T2, recombinant cynomolgus ApoC3; assay: SPR, biotinylated antigen captured on streptavidin chip, IgG as analyte, pH 7.4
[14] = target: T2, recombinant cynomolgus ApoC3; assay: SPR, antigen immobilized on CM5 chip, IgG as analyte, pH 7.4; antigen immobilized on chip, IgG as analyte (12.5-0.8 nM)
[15] = target: T2, recombinant cynomolgus ApoC3; assay: SPR, biotinylated antigen captured on streptavidin chip, IgG as analyte, pH 7.4; biotinylated antigen captured on streptavidin chip, IgG as analyte

T2 sequence (P18659 21-99 limits assumed): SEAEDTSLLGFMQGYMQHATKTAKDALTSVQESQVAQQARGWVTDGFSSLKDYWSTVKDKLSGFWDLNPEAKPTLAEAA
T1 sequence (P02656 21-99): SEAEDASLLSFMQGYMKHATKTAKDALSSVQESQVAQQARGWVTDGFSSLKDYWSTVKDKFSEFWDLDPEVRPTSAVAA

B1: 29B03 scFv (scFv, part only; not given: scFv linker, domain order, c-myc tag, V domains shown, not shown: another chain or arm of the molecule; small tags and cut ends)
VH: QLQLVESGGGLVQPGGSLRLSCAASGFTFGTYSMRWVRQVPRKALEWVSSISTDGGGTAYRDSVKGRFTISRDNAKNTLYLQMNNLKPEDTAIYYCVIAGYSDWGQGTQVTVSS
VL: DVVLTQTPGSLSVVPGESASISCKAGQNLVHPDGKTYLYWLLQKPGQSPQRLIYQVSNRDSGVPDRFTGSGSGTDFTLKISGVKVEDAGVYYCAQGTYWPKTFGQGTKLEIK
R0 (native human ApoC3 [1]): 930 RU
koff (native human ApoC3 [1]): 0.000572 s⁻¹
R0 [2]: 122 RU
koff [2]: 0.0418 s⁻¹

B3: 29A05 scFv (scFv, part only; not given: scFv linker, domain order, c-myc tag, V domains shown, not shown: another chain or arm of the molecule; small tags and cut ends)
VH: B1 VH
VL: B1 VL with G26S, N28S, H31Y, P32S
R0 (native human ApoC3 [1]): 545 RU
koff (native human ApoC3 [1]): 0.0069 s⁻¹
R0 [2]: 145 RU
koff [2]: 0.0146 s⁻¹

B5: 29A06 scFv (scFv, part only; not given: scFv linker, domain order, c-myc tag, V domains shown, not shown: another chain or arm of the molecule; small tags and cut ends)
VH: B1 VH
VL: B1 VL with G26S, P32S, D33N, D60G, G62E, V85A
R0 (native human ApoC3 [1]): 1010 RU
koff (native human ApoC3 [1]): 0.00162 s⁻¹
R0 [2]: 125 RU
koff [2]: 0.0406 s⁻¹

B7: 5E5 WT scFv (scFv, part only; not given: scFv linker, domain order, c-myc tag, V domains shown, not shown: another chain or arm of the molecule; small tags and cut ends)
VH: B1 VH
VL: ATMLTQSPGSLSVVPGESASISCKTSQGLVHSDGKTYFYWFLQKPGQSPQQLIYQVSNRASGVPDRFTGSGSGTDFTLKISGVKAEDAGVYYCAQGTYYPHTFGSGTRLEIK
R0 (native human ApoC3 [1]): 854 RU
koff (native human ApoC3 [1]): 0.000964 s⁻¹
koff [2]: 0.0391 s⁻¹

B8: 29F10 scFv (scFv, part only; not given: scFv linker, domain order, c-myc tag, V domains shown, not shown: another chain or arm of the molecule; large carriers; small tags and cut ends)
VH: B1 VH
VL: B1 VL with S18P, I21V, G26S, N28S, D60G, K79E, V85A
R0 (native human ApoC3 [1]): 808 RU
koff (native human ApoC3 [1]): 0.00144 s⁻¹
R0 [2]: 52 RU
koff [2]: 0.059 s⁻¹

B10: 29A05 IgG (antibody, V domains shown)
VH: B1 VH
VL: B1 VL with G26S, N28S, H31Y, P32S
Kd (native human ApoC3 [6]): 6.01 nM
koff (native human ApoC3 [6]): 0.00126 s⁻¹
kon (native human ApoC3 [6]): 210000 M⁻¹ s⁻¹
Kd (native human ApoC3 [7]): 6.42 nM
koff (native human ApoC3 [7]): 0.00132 s⁻¹
kon (native human ApoC3 [7]): 206000 M⁻¹ s⁻¹
Kd [8]: 296 nM
koff [8]: 0.00887 s⁻¹
kon [8]: 30000 M⁻¹ s⁻¹
Kd (native human ApoC3 [9]): 6.87 nM
koff (native human ApoC3 [9]): 0.00133 s⁻¹
kon (native human ApoC3 [9]): 194000 M⁻¹ s⁻¹
Kd [10]: 359 nM
koff [10]: 0.00875 s⁻¹
kon [10]: 24400 M⁻¹ s⁻¹
Kd (native human ApoC3 [11]): 7.36 nM
koff (native human ApoC3 [11]): 0.00133 s⁻¹
kon (native human ApoC3 [11]): 181000 M⁻¹ s⁻¹
Kd [12]: 365 nM
koff [12]: 0.00983 s⁻¹
kon [12]: 26900 M⁻¹ s⁻¹
Kd (native human ApoC3 [3]): 0.16 nM
koff (native human ApoC3 [3]): 8.2e-05 s⁻¹
kon (native human ApoC3 [3]): 520000 M⁻¹ s⁻¹
Kd [4]: 0.21 nM
koff [4]: 6.4e-05 s⁻¹
kon [4]: 310000 M⁻¹ s⁻¹
Kd (native human ApoC3 [5]): 0.13 nM
koff (native human ApoC3 [5]): 6.3e-05 s⁻¹
kon (native human ApoC3 [5]): 500000 M⁻¹ s⁻¹
Kd [13]: 0.65 nM
koff [13]: 0.000175 s⁻¹
kon [13]: 270000 M⁻¹ s⁻¹

B11: 29A06 IgG (antibody, V domains shown)
VH: B1 VH
VL: B1 VL with G26S, P32S, D33N, D60G, G62E, V85A
Kd (native human ApoC3 [6]): 0.755 nM
koff (native human ApoC3 [6]): 0.000314 s⁻¹
kon (native human ApoC3 [6]): 416000 M⁻¹ s⁻¹
Kd (native human ApoC3 [7]): 0.814 nM
koff (native human ApoC3 [7]): 0.000317 s⁻¹
kon (native human ApoC3 [7]): 390000 M⁻¹ s⁻¹
Kd (native human ApoC3 [9]): 0.91 nM
koff (native human ApoC3 [9]): 0.00032 s⁻¹
kon (native human ApoC3 [9]): 351000 M⁻¹ s⁻¹
Kd (native human ApoC3 [11]): 0.973 nM
koff (native human ApoC3 [11]): 0.000327 s⁻¹
kon (native human ApoC3 [11]): 336000 M⁻¹ s⁻¹
Kd [12]: 919 nM
koff [12]: 0.0207 s⁻¹
kon [12]: 22500 M⁻¹ s⁻¹
Kd (native human ApoC3 [3]): 0.07 nM
koff (native human ApoC3 [3]): 6.5e-05 s⁻¹
kon (native human ApoC3 [3]): 950000 M⁻¹ s⁻¹
Kd [4]: 0.15 nM
koff [4]: 7.5e-05 s⁻¹
kon [4]: 500000 M⁻¹ s⁻¹
Kd (native human ApoC3 [5]): 0.04 nM
koff (native human ApoC3 [5]): 4.2e-05 s⁻¹
kon (native human ApoC3 [5]): 960000 M⁻¹ s⁻¹
Kd [13]: 0.46 nM
koff [13]: 0.000169 s⁻¹
kon [13]: 370000 M⁻¹ s⁻¹

B12: 29G02 IgG (antibody, V domains shown)
VH: B1 VH
VL: DVVLTQTPGSLSVVPGESASISCKATQSLVHIDGKTYLYWLLQKPGQSPQRLIYQVSTRDSGVPDRFTGAGSGAEFTLKISGVKAEDAGVYYCAQDTYSTKTFGQGTKLEIK
Kd (native human ApoC3 [6]): 2.31 nM
koff (native human ApoC3 [6]): 0.000718 s⁻¹
kon (native human ApoC3 [6]): 311000 M⁻¹ s⁻¹
Kd (native human ApoC3 [7]): 2.52 nM
koff (native human ApoC3 [7]): 0.000758 s⁻¹
kon (native human ApoC3 [7]): 301000 M⁻¹ s⁻¹
Kd (native human ApoC3 [9]): 2.57 nM
koff (native human ApoC3 [9]): 0.000733 s⁻¹
kon (native human ApoC3 [9]): 286000 M⁻¹ s⁻¹
Kd (native human ApoC3 [11]): 3.04 nM
koff (native human ApoC3 [11]): 0.000752 s⁻¹
kon (native human ApoC3 [11]): 247000 M⁻¹ s⁻¹
Kd (native human ApoC3 [3]): 0.01 nM
koff (native human ApoC3 [3]): 1.6e-05 s⁻¹
kon (native human ApoC3 [3]): 1.32e+06 M⁻¹ s⁻¹
Kd (native human ApoC3 [5]): 0.02 nM
koff (native human ApoC3 [5]): 3.3e-05 s⁻¹
kon (native human ApoC3 [5]): 1.31e+06 M⁻¹ s⁻¹
Kd [13]: 0.37 nM
Kd [14]: 0.5 nM
koff [14]: 0.000552 s⁻¹
kon [14]: 1.11e+06 M⁻¹ s⁻¹
koff [15]: 0.000275 s⁻¹
kon [15]: 750000 M⁻¹ s⁻¹

More lines, now with the values ahead:

R0 (native human ApoC3 [1]): 809 RU
koff (native human ApoC3 [1]): 0.00633 s⁻¹
R0 [2]: 92.7 RU
koff [2]: 0.00714 s⁻¹
B2: 29G11 scFv (scFv, part only; not given: scFv linker, domain order, c-myc tag, V domains shown, not shown: another chain or arm of the molecule; small tags and cut ends)
VH: B1 VH
VL: B12 VL with E17G, T26S, H31Y, I32S, L42R, T58N, D60P, A70S, A74T, E75D

R0 (native human ApoC3 [1]): 695 RU
koff (native human ApoC3 [1]): 0.00123 s⁻¹
koff [2]: 0.0436 s⁻¹
B4: 30D10 scFv (scFv, part only; not given: scFv linker, domain order, c-myc tag, V domains shown, not shown: another chain or arm of the molecule; small tags and cut ends)
VH: B1 VH
VL: DVVLTQTPGSLSVVPGESASISCTASQSLRHSDGRTYLYWLRQKPGQSPQRLIKRVSTRDPGVPDRFTGSGSGTDFTLKISGVRAEDAGVYYCAQGTYYPLTFGQGTKVELK

Kd (native human ApoC3 [3]): 0.15 nM
koff (native human ApoC3 [3]): 0.000231 s⁻¹
kon (native human ApoC3 [3]): 1.5e+06 M⁻¹ s⁻¹
binding result [4]: no binding
Kd (native human ApoC3 [5]): 0.1 nM
koff (native human ApoC3 [5]): 0.000126 s⁻¹
kon (native human ApoC3 [5]): 1.29e+06 M⁻¹ s⁻¹
B6: 30D10 IgG (antibody, V domains shown)
VH: B1 VH
VL: B4 VL

R0 (native human ApoC3 [1]): 833 RU
koff (native human ApoC3 [1]): 0.00435 s⁻¹
R0 [2]: 102 RU
koff [2]: 0.00721 s⁻¹
B9: 29G02 scFv (scFv, part only; not given: scFv linker, domain order, c-myc tag, V domains shown, not shown: another chain or arm of the molecule; small tags and cut ends)
VH: B1 VH
VL: B12 VL
